We go through 1 molecule from PMC8266614, “Stabilization of Hfq-mediated translational repression by the co-repressor Crc in Pseudomonas aeruginosa” (Nucleic Acids Research, 2021).

The target in the assay is T1, Hfq_(S65C)-Flag (P. aeruginosa, UniProt Q9HUM0 1-82, S65C).
T1 construct: also called Hfq S65C-Flag protomer of Hfq*; source: E. coli JW4130F'Δhfq(pKEHfqPae); not shown: FLAG, C-terminal, kept
The assay can be described thus: co-IP. Conditions: both partners purified.

B1: P. aeruginosa Hfq, wild type (natural protein)
chain: MSKGHSLQDPYLNTLRKERVPVSIYLVNGIKLQGQIESFDQFVILLKNTVSQMVYKHAISTVVPSRPVRLPSGDQPAEPGNA
notes: RNA chaperone Hfq of Pseudomonas aeruginosa, wild type, from plasmid pKEHfqPae; In the row with m4 the wild-type protomer inside the mixed hexamer is meant; also called Hfq wt; Pae Hfq; source: for Hfq* co-produced with Hfq_(S65C)-Flag in the same strain
In the case of B1, the “stoichiometry N” value was 1 Hfq wt per Hfq_(S65C)-Flag.
